Each block holds one binder with its values, some of them ahead of it.
Experiments:
[1] = target: T1, human IL-36R extracellular domain expressed with a C-terminal myc-myc-hexahistidine tag (hIL-36R-MMH) (human, UniProt Q9HB29 20-337); test: SPR Biacore T200, mAb captured on anti-hFc, 25C, PBS-T pH 6.0 running buffer
T1 construct: also called Human IL-36R-MMH; REGN2105
Description: (§1) Additional binding experiments were performed to determine the effect of pH on the rate of dissociation of IL-36R bound to purified anti-IL-36R antibodies, which was determined using a real-time surface plasmon resonance biosensor using a Biacore T200 instrument. The Biacore sensor surface was first derivatized by amine coupling with a monoclonal mouse anti-human Fc antibody (GE, # BR-1008-39) to capture anti-IL-36R antibodies. […] Different concentrations of hIL-36R-MMH and mfIL-36R-MMH prepared in PBS-T, pH7.4 buffer (ranging from 100 nM to 11.11 nM, 3-fold dilutions) were injected over the anti-IL-36R antibody captured surface for 4 minutes at a flow rate of 50 μL/minute and their dissociation in two running buffers, PBS-T, pH7.4 and PBS-T, pH 6.0, was monitored for 10 minutes. All of these binding kinetics experiments were performed at 25° C. and 37° C. Kinetic dissociation constant (kd) were determined by fitting the real-time sensorgrams to a 1:1 binding model using Scrubber 2.0c curve fitting software. Binding dissociative half-lives (t_{1/2}) were calculated from kd as: […]

[2] = target: T1, human IL-36R extracellular domain …; test: SPR Biacore T200, mAb captured on anti-hFc, 25C, PBS-T pH 7.4 running buffer
Description: as §1

[3] = target: T1, human IL-36R extracellular domain …; test: SPR Biacore T200, mAb captured on anti-hFc, 37C, PBS-T pH 7.4 running buffer
Description: as §1

[4] = target: T2, human IL-36R extracellular domain expressed with a C-terminal mouse IgG2a Fc tag (hIL-36R-mFc) (human; mouse, UniProt Q9HB29 20-337); test: SPR Biacore 4000, mAb captured on anti-hFc, 25C
T2 construct: not shown: mouse IgG2a Fc, E98-K330
T2 sequence (looked up): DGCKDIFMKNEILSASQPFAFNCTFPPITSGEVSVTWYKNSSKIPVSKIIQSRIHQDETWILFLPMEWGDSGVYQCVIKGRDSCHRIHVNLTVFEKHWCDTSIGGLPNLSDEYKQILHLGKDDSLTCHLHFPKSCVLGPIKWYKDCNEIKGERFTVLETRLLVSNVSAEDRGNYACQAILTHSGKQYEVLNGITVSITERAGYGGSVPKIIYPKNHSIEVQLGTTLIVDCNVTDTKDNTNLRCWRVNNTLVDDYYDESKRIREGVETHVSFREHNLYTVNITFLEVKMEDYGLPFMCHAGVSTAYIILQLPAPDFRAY
Description: (§2) Equilibrium dissociation constants (KD values) for IL-36R binding to purified anti-IL-36R antibodies were determined using a real-time surface plasmon resonance biosensor using a Biacore 4000 instrument. The Biacore sensor surface was first derivatized by amine coupling with a monoclonal mouse anti-human Fc antibody (GE, # BR-1008-39) to capture anti-IL-36R monoclonal antibodies. All binding studies were performed in 0.01 M Hepes pH 7.4, 0.15 M NaCl, 3 mM EDTA, and 0.05% v/v Surfactant Tween-20 (HBS-ET running buffer) at 25° C. and 37° C. Different concentrations of IL-36R reagents, human IL-36R extracellular domain expressed with a C-terminal myc-myc-hexahistidine tag (hIL-36R-MMH), Macaca fascicularis IL-36R extracellular domain expressed with a C-terminal myc-myc-hexahistidine tag (mfIL-36R-MMH: mROR1 signal sequence (M1-A29). Macaca fascicularis IL36R_ecto domain (D20-A336).mycmycHis6), human IL-36R extracellular domain expressed with a C-terminal mouse IgG2a Fc tag (hIL-36R-mFc: mROR1 signal sequence (M1-A29)-human IL36R (D20-Y337)-mouse IgG2aFc (E98-K330)) or an in-line fusion protein of human IL-36R extracellular domain and IL1RAcP extracellular domain expressed with mouse IgG2a Fc tag (hIL-36R-Trap-mFc: mROR1 signal sequence (M1-A29)-human IL36R ecto domain (D20-Y337)-human IL1RacP ecto domain(S21-E359)-mouse IgG2aFc) in HBS-ET running buffer (ranging from 100 nM to 3.7 nM, 3-fold dilutions) were injected over the anti-IL-36R antibody captured surface for 4 minutes at a flow rate of 30 μL/minute and their dissociation in HBS-ET running buffer was monitored for 10 minutes. Kinetic association rate constant (kₐ) and dissociation rate constant (kd) were determined by fitting the real-time sensorgrams to a 1:1 binding model using Scrubber 2.0c curve fitting software. Binding dissociation equilibrium constants (KD) and dissociative half-lives (t_{1/2}) were calculated from the kinetic rate constants as: […]

[5] = target: T3, in-line fusion protein of human IL-36R extracellular domain and IL1RAcP extracellular domain expressed with … (human; mouse, UniProt Q9HB29 20-337; Q9NPH3 21-359, limits assumed); test: SPR Biacore 4000, mAb captured on anti-hFc, 25C
T3 construct: not shown: mouse IgG2a Fc
T3 sequence (looked up): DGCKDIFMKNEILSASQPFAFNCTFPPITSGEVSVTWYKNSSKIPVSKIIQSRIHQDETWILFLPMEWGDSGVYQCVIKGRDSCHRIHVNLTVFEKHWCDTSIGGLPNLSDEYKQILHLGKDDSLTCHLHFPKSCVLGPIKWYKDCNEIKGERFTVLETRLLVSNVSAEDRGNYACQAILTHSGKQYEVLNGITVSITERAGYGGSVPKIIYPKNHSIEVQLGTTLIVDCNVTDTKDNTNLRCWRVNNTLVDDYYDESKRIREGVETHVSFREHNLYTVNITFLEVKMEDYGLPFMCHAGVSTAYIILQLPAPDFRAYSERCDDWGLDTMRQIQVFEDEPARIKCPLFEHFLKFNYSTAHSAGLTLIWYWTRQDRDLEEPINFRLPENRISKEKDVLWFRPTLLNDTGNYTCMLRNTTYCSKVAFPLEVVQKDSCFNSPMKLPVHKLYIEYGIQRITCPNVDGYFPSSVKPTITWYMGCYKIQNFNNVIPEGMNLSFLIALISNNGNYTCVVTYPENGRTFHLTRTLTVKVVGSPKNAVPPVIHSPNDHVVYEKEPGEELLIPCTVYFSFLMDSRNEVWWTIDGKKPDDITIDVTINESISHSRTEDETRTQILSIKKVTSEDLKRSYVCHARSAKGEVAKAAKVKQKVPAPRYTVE
Description: as §2

[6] = target: T1, human IL-36R extracellular domain …; test: SPR Biacore T200, mAb captured on anti-hFc, 37C, PBS-T pH 6.0 running buffer
Description: as §1

[7] = target: T2, human IL-36R extracellular domain …; test: SPR Biacore 4000, mAb captured on anti-hFc, 37C
Description: as §2

[8] = target: T3, in-line fusion protein of human IL-36R …; test: SPR Biacore 4000, mAb captured on anti-hFc, 37C
Description: as §2

T1 sequence (Q9HB29 other isoform, or with tags, fused parts or gaps limits assumed): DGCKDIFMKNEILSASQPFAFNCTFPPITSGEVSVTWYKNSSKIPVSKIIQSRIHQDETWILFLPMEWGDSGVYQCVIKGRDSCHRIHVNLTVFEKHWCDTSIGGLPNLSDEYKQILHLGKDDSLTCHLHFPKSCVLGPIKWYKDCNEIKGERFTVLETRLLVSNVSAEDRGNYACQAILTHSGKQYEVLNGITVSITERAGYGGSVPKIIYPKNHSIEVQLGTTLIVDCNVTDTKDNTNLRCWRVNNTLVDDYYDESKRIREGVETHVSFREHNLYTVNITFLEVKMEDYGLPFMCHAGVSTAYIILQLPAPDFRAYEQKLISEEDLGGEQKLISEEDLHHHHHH

- 100 nM Human IL-36R-MMH Bound (RU) [1]: 43 RU
- koff [1]: 0.000679 s⁻¹
- t1/2 [1]: 17 min
- 100 nM Human IL-36R-MMH Bound (RU) [2]: 65 RU
- koff [2]: 0.000553 s⁻¹
- t1/2 [2]: 21 min
- 100 nM hIL-36R-MMH Bound (RU) [3]: 91 RU
- koff [3]: 0.00108 s⁻¹
- t1/2 [3]: 11 min
- 100 nM hIL-36R-mFc Bound (RU) [4]: 10 RU
- Kd [4]: 5.79 nM
- koff [4]: 0.000323 s⁻¹
- kon [4]: 55800 M⁻¹ s⁻¹
- t1/2 [4]: 36 min
- 100 nM hIL-36R-Trap-mFc Bound (RU) [5]: 60 RU
- Kd [5]: 4.45 nM
- koff [5]: 0.000201 s⁻¹
- kon [5]: 45200 M⁻¹ s⁻¹
- t1/2 [5]: 57 min
- 100 nM hIL-36R-MMH Bound (RU) [6]: 84 RU
- koff [6]: 0.00201 s⁻¹
- t1/2 [6]: 6 min
- 100 nM hIL-36R-mFc Bound (RU) [7]: 12 RU
- Kd [7]: 6.43 nM
- koff [7]: 0.00045 s⁻¹
- kon [7]: 69900 M⁻¹ s⁻¹
- t1/2 [7]: 26 min
- 100 nM hIL-36R-Trap-mFc Bound (RU) [8]: 78 RU
- Kd [8]: 9.77 nM
- koff [8]: 0.000514 s⁻¹
- kon [8]: 52600 M⁻¹ s⁻¹
- t1/2 [8]: 22 min
B1: H4H14731P (antibody, human IgG4 S228P, kappa, V domains shown)
VH: QLQLQESGPGLVKPSETLSLTCTVSGGSISSSNYYWGWIRQPPGKRLEWIGSIYYSGSTYYNPSLKTRVTISVDTSKNQFSLKLTSVTAADTAVYYCAREEAAALTHFDFWGQGTLVTVSS
VL: DIQMTQSPSSLSASVGDRVTITCRASQSISNYLNWYQQKPGKAPKLLIFAASSLQSGVPSRFSGSGSGTDFTLTISSLQPEDFATYYCQHSHSSHPITFGQGTRLEIKR
notes: Fully human anti-IL-36R antibody

- 100 nM Human IL-36R-MMH Bound (RU) [1]: 99 RU
- koff [1]: 0.000842 s⁻¹
- t1/2 [1]: 14 min
- 100 nM Human IL-36R-MMH Bound (RU) [2]: 111 RU
- koff [2]: 0.00042 s⁻¹
- t1/2 [2]: 28 min
- 100 nM hIL-36R-MMH Bound (RU) [3]: 159 RU
- koff [3]: 0.000704 s⁻¹
- t1/2 [3]: 16 min
- 100 nM hIL-36R-mFc Bound (RU) [4]: 142 RU
- Kd [4]: 0.335 nM
- koff [4]: 8.62e-05 s⁻¹
- kon [4]: 257000 M⁻¹ s⁻¹
- t1/2 [4]: 134 min
- 100 nM hIL-36R-Trap-mFc Bound (RU) [5]: 173 RU
- Kd [5]: 0.404 nM
- koff [5]: 8.07e-05 s⁻¹
- kon [5]: 200000 M⁻¹ s⁻¹
- t1/2 [5]: 143 min
- 100 nM hIL-36R-MMH Bound (RU) [6]: 146 RU
- koff [6]: 0.00172 s⁻¹
- t1/2 [6]: 7 min
- 100 nM hIL-36R-mFc Bound (RU) [7]: 211 RU
- Kd [7]: 0.205 nM
- koff [7]: 0.000112 s⁻¹
- kon [7]: 543000 M⁻¹ s⁻¹
- t1/2 [7]: 104 min
- 100 nM hIL-36R-Trap-mFc Bound (RU) [8]: 257 RU
- Kd [8]: 0.264 nM
- koff [8]: 0.000123 s⁻¹
- kon [8]: 467000 M⁻¹ s⁻¹
- t1/2 [8]: 94 min
B2: H4H14709P (antibody, human IgG4 S228P, kappa, V domains shown)
VH: EVQLVESGGGLVQPGGSLRLSCAASGFTFSDYAMSWVRQAPGKGLEWVSGISGNGGDTYYGDFVKGRFTISRDNSKNTLYLQMNSLRGEDTAAYFCVIDLDYWGQGTLVTVSS
VL: DIQMTQSPSTLSASEGDRVTITCRASQSISSWLAWYQQKPGKAPRLLIYKASILGDGVPSRFSGSGSGTEFTLTISSLQPDDFATYYCHQYNSYLWTFGQGTKVEIKR
notes: as for B1
